Experimental data as given in patent US20150353647A1 (UNIVERSITY OF TENNESSEE RESEARCH FOUNDATION, published 2015).

Target: human tissue plasminogen activator (TPA) (human, UniProt P00750 36-562)
Test: cell-based or functional assay

Chain of human tissue plasminogen activator (TPA) (P00750 36-562 limits assumed): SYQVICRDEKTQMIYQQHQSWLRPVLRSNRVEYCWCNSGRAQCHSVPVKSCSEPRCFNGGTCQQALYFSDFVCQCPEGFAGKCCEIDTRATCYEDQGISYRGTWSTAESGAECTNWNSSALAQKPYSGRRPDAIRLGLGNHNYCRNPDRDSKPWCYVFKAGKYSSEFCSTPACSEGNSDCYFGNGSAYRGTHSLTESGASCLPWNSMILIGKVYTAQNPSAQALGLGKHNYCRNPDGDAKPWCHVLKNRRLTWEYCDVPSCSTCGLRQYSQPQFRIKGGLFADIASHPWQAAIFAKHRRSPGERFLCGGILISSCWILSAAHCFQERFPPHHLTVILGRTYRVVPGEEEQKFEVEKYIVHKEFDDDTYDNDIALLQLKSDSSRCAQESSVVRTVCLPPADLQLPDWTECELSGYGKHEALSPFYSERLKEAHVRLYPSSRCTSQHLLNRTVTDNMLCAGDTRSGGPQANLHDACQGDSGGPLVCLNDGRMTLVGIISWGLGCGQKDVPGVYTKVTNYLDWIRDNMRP

B1: stable mutant human PAI-1 (four amino acid substitutions, N150H, K154T, Q319L, and M354I) (other, UniProt P05121 24-402, looked up)
chain: VHHPPSYVAHLASDFGVRVFQQVAQASKDRNVVFSPYGVASVLAMLQLTTGGETQQQIQAAMGFKIDDKGMAPALRHLYKELMGPWNKDEISTTDAIFVQRDLKLVQGFMPHFFRLFRSTVKQVDFSEVERARFIINDWVKTHTKGMISHLLGTGAVDQLTRLVLVNALYFNGQWKTPFPDSSTHRRLFHKSDGSTVSVPMMAQTNKFNYTEFTTPDGHYYDILELPYHGDTLSMFIAAPYEKEVPLSALTNILSAQLISHWKGNMTRLPRLLVLPKFSLETEVDLRKPLENLGMTDMFRQFQADFTSLSDQEPLHVALALQKVKIEVNESGTVASSSTAVIVSARMAPEEIIIDRPFLFVVRHNPTGTVLFMGQVMEP
IC50, inhibition of TPA-induced fibrinolysis of human plasma clots (0.5 nM TPA, 2 hrs): 4.53 nM
